# Data from patent US20170224783.
# Molecular target: pyruvate dehydrogenase complex (PDHC) immuno-captured from tissue lysates of E3 mice
protein,measurement,value
"TAT-LAD fusion protein (His tag, TAT peptide, human LAD precursor) (protein) MGSSHHHHHHSSGLVPRGSHMRKKRRQRRRGSDPQSWSRVYCSLAKRGHFNRISHGLQGLSAVPLRTYADQPIDADVTVIGSGPGGYVAAIKAAQLGFKTVCIEKNETLGGTCLNVGCIPSKALLNNSHYYHMAHGTDFASRGIEMSEVRLNLDKMMEQKSTAVKALTGGIAHLFKQNKVVHVNGYGKITGKNQVTATKADGGTQVIDTKNILIATGSEVTPFPGITIDEDTIVSSTGALSLKKVPEKMVVIGAGVIGVELGSVWQRLGADVTAVEFLGHVGGVGIDMEISKNFQRILQKQGFKFKLNTKVTGATKKSDGKIDVSIEAASGGKAEVITCDVLLVCIGRRPFTKNLGLEELGIELDPRGRIPVNTRFQTKIPNIYAIGDVVAGPMLAHKAEDEGIICVEGMAGGAVHIDYNCVPSVIYTHPEVAWVGKSEEQLKEEGIEYKVGKFPFAANSRAKTNADTDGMVKILGQKSTDRVLGAHILGPGAGEMVNEAALALEYGASCEDIARVCHAHPTLSEAFREANLAASFGKSINFE","PDHC enzymatic activity of immuno-captured PDHC, the three organs at 24 hours post-treatment, percent increase",increase in PDHC enzymatic activity (40-65%) was also evident in the three organs at 24 hours post-treatment
